Experiment [1] addresses T1, mouse Fzd7 P188L (mouse, UniProt Q61090 33-572).
T1 construct: also called MEF-Fzd7P188L
The experiment is described as follows: reactivity of Fab with mouse Fzd7 point mutants (FIG. 4C-D).

Experiment [2] deals with FZD7 protein on human cancer cells (OVCAR-4, MDA-MB-231, primary tumour tissue) (human, UniProt O75084 33-574). The experiment is described as follows: cell-based or functional assay.

B1: FZD7-Fab-1291 (Fab)
light: DVVMSQSPSSLAVSVGEKVTMSCKSSQSLLYSSNQKNYLAWYQQKPGQSPKLLIYWASTRESGVPDRFTGSGSGTDFTLTISSVKAKDLAVYYCQQYYSYPTFGGGTKLEIKRADAAPTVSIFPPSSEQLTSGGASVVCFLNNFYPKDINVKWKIDGSERQNGVLNSWTDQDSKDSTYSMSSTLTLTKDEYERHNSYTCEATHKTSTSPIVKSFNRNESYPYDVPDYAS
heavy: EVQLVESGGGLVKPGGSLKLSCAASGFTFSSYAMSWVRQTPEKRLEWVATISDGGSYTRYPDKLKGRFTISRDNAKNNLYLQMSHLKSEDTAMYYCARVGGRRDYFDYWGQGTTLTVSSAKTTPPSVYPLAPGSAAQTNSMVTLGCLVKGYFPEPVTVTWNSGSLSSGVHTFPAVLQSDLYTLSSSVTVPSSTWPSETVTCNVAHPASSTKVDKKIVPRDCHHHHHHH
notes: The entries as printed end in tag-like residues
Regarding B1, the binding result in experiment [1] was “binds”.

B2: FZD7-Fab-1791 (Fab)
light: DIVMTQSPKSMSMSVGERVTLRCKASENVLNYVSWYQQKPEQSPKLLIYGASNRYTGVPDRFTGSGSATDFTLTISSVQAEDLADYHCGQSYRYPTFGAGTKLELKRADAAPTVSIFPPSSEQLTSGGASVVCFLNNFYPKDINVKWKIDGSERQNGVLNSWTDQDSKDSTYSMSSTLTLTKDEYERHNSYTCEATHKTSTSPIVKSFNRNESYPYDVPDYAS
heavy: EVQPVESGGGLVQPKGSLKLSCAASGFTFNTYAMHWVRQAPGKGLEWVARIRSKSNNYAKNYDDSVKDRFTISRDDSQSMLYLQMNNLKTEDTAMYYCVRENYGGRFDYWGQGTTLTVSSAKTTPPSVYPLAPGSAAQTNSMVTLGCLVKGYFPEPVTVTWNSGSLSSGVHTFPAVLQSDLYTLSSSVTVPSSTWPSETVTCNVAHPASSTKVDKKIVPRDSHHHHHHH
As to B2, in experiment [2], the “fold decrease in TOP-Flash Wnt reporter (luciferase) activity in MDA-MB-231 cells treated with Wnt3a (0-5 nM), FZD7-Fab-1791 at 200 nM” value was roughly 3 fold. The binding result in experiment [1] is on record as “binds”.

These data come from patent publication US20180186885A1 (University of California, published 2018).
